# Measurements: PMC8448962 (Neuron, 2021)
# B1: Human TRAAK A198E, crystallisation construct (C-terminally truncated, N104Q/N108Q) (domain or fragment)
# chain: MTTAPQEPPARPLQAGSGAGPAPGRAMRSTTLLALLALVLLYLVSGALVFRALEQPHEQQAQRELGEVREKFLRAHPCVSDQELGLLIKEVADALGGGADPETQSTSQSSHSAWDLGSAFFFSGTIITTIGYGNVALRTDAGRLFCIFYALVGIPLFGILLAGVGDRLGSSLRHGIGHIEAIFLKWHVPPELVRVLSEMLFLLIGCLLFVLTPTFVFCYMEDWSKLEAIYFVIVTLTTVGFGDYVAGADPRQDSPAYQPLVWFWILLGLAYFASVLTTIGNWLRVVSRRTRAEMGGLTAQSNSLEVLFQ
# Target: the molecule itself
# Test: crystal structure
protein,measurement,value
B1,stoichiometry N,2
